3 molecules from patent publication US20250250593A1, “METHOD FOR PREPARING ALPHA-BRANCHED BETA'-HYDROXY CARBONYL COMPOUNDS BY ENZYMATIC-CATALYZED REDUCTIVE ALDOL REACTION” (Max-Planck-Gesellschaft zur Förderung der Wissenschaften …, priority 2022, published 2025) can be followed below.

Where a chain is given by its changes, count along the chain named. Names may count otherwise. “And” between values parts separate entries of the source, which are not always exact repeats. Equal values may be shown once.

The target of series [1] is T1, Kitasatospora setae crotonyl-CoA carboxylase/reductase (KsCcr), wild type (WT), SEQ ID NO: 1 (Kitasatospora setae, UniProt E4N096).
T1 construct: gene provided by JGI
T1 sequence (E4N096 1-445): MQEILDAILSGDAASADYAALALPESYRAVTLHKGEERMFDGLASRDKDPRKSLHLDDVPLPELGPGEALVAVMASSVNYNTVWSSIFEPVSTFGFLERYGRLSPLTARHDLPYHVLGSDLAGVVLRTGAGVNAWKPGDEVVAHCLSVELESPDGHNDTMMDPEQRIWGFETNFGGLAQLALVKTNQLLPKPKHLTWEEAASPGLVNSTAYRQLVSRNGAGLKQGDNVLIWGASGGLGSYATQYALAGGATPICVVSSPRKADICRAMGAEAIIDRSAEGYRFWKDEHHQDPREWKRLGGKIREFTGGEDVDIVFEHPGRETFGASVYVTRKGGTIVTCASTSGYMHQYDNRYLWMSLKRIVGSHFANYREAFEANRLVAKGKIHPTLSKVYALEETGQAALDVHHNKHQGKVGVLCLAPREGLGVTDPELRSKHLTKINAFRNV
Format: biochemical. The conditions noted are these: apparent turnover rate with formaldehyde as electrophile; 100 mM K2HPO4 pH 8.0, 30 °C; mean ± standard error. As for the experimental part: His-tagged KsCcr and its variants were expressed in E. coli BL21 (DE3). Cells in terrific broth were grown at 37° C. to an OD600=0.8-1.0 upon which expression for 12-16 h at 23° C. was induced by the addition of 500 μM IPTG (Isopropyl-D-β-thiogalactopyranoside). Cells were harvested for 15 min at 7500× g at 4° C. then resuspended in 2 mL of buffer A (50 mM Tris, 500 mM NaCl, 1 M L-Proline, pH=7.5) per gram of pellet. The suspension was treated with […] of DNAse I, 5 mM MgCl2, 10 μg/ml of lysozyme and incubated on ice for 20 min upon which cells were lysed using a sonicator. The lysate was clarified at 45000× g at 4° C. for 40 min and then loaded onto a pre-equilibrated 1 mL HisTrap FF column and washed with 15% buffer B (50 mM Tris, 500 mM NaCl, 1 M L-Proline, 500 mM imidazole, pH=7.5) for 20-30 column volumes until the UV 280 nm reached the baseline level. […]
Formaldehyde stock solution concentration was determined by following the formation of phenylhydrazone at 368 nm (εPhenylhydrazone,368 nm=6.1 mM^−1 cm^−1). […]
For reactions in which the full conversion to the aldol product was achieved assays were performed on a Cary-60 UV/Vis spectrophotometer (Agilent) at 30° C. using quartz cuvettes (1 mm, 3 mm or 10 mm path length; Hellma). […] Kinetic parameters for one substrate were determined by varying its concentration while the others were kept constant at 10 times their KM value.

For series [2], the system named is CcCcrPAG. The series is described as follows: Substrate promiscuity screen: enoyl-CoAs with aldehydes, LC-MS. Format: biochemical, Caulobacter crescentus. The conditions noted are these: six enoyl-CoAs with formaldehyde, acetaldehyde, propionaldehyde, benzaldehyde; with Acx4 and catalase. The source says:
According to phylogenetic and structural analysis, KsCcr belongs to the ECR-1 subfamily of enzymes that are mainly restricted to short-chain enoyl-CoAs. To increase the substrate scope of reductive aldol reactions, the inventors sought to use a more promiscuous enzyme. To that end, a triple variant of Caulobacter crescentus crotonyl-CoA carboxylase/reductase (CcCcrC146P/1169A/F373G, here CcCcrPAG) was employed that had been engineered to accept a variety of enoyl-CoAs, including short- and long-chain, branched, aromatic, bulky and halogenated analogs. Six different enoyl-CoA substrates (FIG. 4) were synthesized and tested in combination with four different aldehydes (formaldehyde, acetaldehyde, propionaldehyde, benzaldehyde) and by LC-MS.
Assays were performed in 100 mM K2HPO4 pH=8.0 at 30° C. and 10 μL samples were taken at different time points and quenched with 1 μL of 50% formic acid. The samples were spinned at 17000 g for 10 min at 4° C. to precipitate the protein and then analyzed by LC-MS.
Determination of CoA esters was performed using a HRES-LC-MS. […]

For series [3], the system named is crotonyl-CoA carboxylase/reductase obtained from Caulobacter crescentus (CcCcr). The series is described as follows: First empirical data on reductive aldol reaction by CcCcr. Format: biochemical.
crotonyl-CoA carboxylase/reductase obtained from Caulobacter crescentus (CcCcr), sequence (as listed by the source): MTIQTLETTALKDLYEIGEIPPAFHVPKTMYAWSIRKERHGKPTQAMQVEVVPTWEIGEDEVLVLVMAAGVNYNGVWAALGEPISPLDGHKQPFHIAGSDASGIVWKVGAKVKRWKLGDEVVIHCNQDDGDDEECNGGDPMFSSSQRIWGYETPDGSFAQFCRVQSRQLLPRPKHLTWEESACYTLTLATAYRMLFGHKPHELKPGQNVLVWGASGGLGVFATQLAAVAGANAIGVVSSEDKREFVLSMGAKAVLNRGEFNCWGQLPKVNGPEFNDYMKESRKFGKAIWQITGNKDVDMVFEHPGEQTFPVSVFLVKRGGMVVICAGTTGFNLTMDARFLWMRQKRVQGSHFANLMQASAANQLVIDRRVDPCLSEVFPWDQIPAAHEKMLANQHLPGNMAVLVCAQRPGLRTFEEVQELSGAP

Regarding `C/C=C/C(=O)SCCNC(=O)CCNC(=O)[C@H](O)C(C)(C)COP(=O)(O)OP(=O)(O)OC[C@H]1O[C@@H](n2cnc3c(N)ncnc32)[C@H](O)[C@@H]1OP(=O)(O)O` [Crotonyl-CoA, crotonyl-CoA], the Kcat in series [1] is 30 s⁻¹ and 30 ± 1 s⁻¹.

B1: CcCcrPAG: triple variant of Caulobacter crescentus crotonyl-CoA carboxylase/reductase engineered to accept a variety of enoyl-CoAs, SEQ ID NO: 29 (protein)
chain: MTIQTLETTALKDLYEIGEIPPAFHVPKTMYAWSIRKERHGKPTQAMQVEVVPTWEIGEDEVLVLVMAAGVNYNGVWAALGEPISPLDGHKQPFHIAGSDASGIVWKVGAKVKRWKLGDEVVIHPNQDDGDDEECNGGDPMFSSSQRAWGYETPDGSFAQFCRVQSRQLLPRPKHLTWEESACYTLTLATAYRMLFGHKPHELKPGQNVLVWGASGGLGVFATQLAAVAGANAIGVVSSEDKREFVLSMGAKAVLNRGEFNCWGQLPKVNGPEFNDYMKESRKFGKAIWQITGNKDVDMVFEHPGEQTFPVSVFLVKRGGMVVICAGTTGFNLTMDARFLWMRQKRVQGSHGANLMQASAANQLVIDRRVDPCLSEVFPWDQIPAAHEKMLANQHLPGNMAVLVCAQRPGLRTFEEVQELSGAP
modifications: CcCcr C125P/I148A/F352G
For B1, in series [2], the “conversion of enoyl-CoAs to aldol products” value is reported as “catalyzed conversion of all the tested enoyl-CoAs”.

B2: CcCcr: wild type crotonyl-CoA carboxylase/reductase obtained from Caulobacter crescentus, SEQ ID NO: 2 (protein)
chain: B1 chain with P125C, A148I, G352F
modifications: Caulobacter crescentus CcCCR crotonyl-CoA carboxylase/reductase
Take B2: the “ability to catalyze a reductive aldol reaction” value in series [3] is on record as “able to catalyze a reductive aldol reaction”.
